{
  "source": "paper PMC8469155",
  "key": {"[1]": {"target": "L19-TNF^I97A (human)", "test": "SEC; Superdex 200 Increase 10/300 column, ÄKTA FPLC, protein dialysed into PBS pH 7.4; peak at 12 mL corresponds to the homotrimer"}, "[2]": {"target": "alternatively spliced EDB domain of fibronectin (recombinant EDB protein)"}, "[3]": {"target": "L19-TNF^Q102N (human)", "test": "SEC; Superdex 200 Increase 10/300 column, ÄKTA FPLC, protein dialysed into PBS pH 7.4; peak at 12 mL corresponds to the homotrimer"}, "[4]": {"target": "L19-TNF^S147A (human)", "test": "SEC; Superdex 200 Increase 10/300 column, ÄKTA FPLC, protein dialysed into PBS pH 7.4; peak at 12 mL corresponds to the homotrimer"}, "[5]": {"target": "L19-TNF^WT (human)", "test": "SEC; Superdex 200 Increase 10/300 column, ÄKTA FPLC, protein dialysed into PBS pH 7.4; peak at 12 mL corresponds to the homotrimer"}, "[6]": {"target": "tumor necrosis factor receptor 1 (TNFR-1) (UniProt P19438)", "test": "SPR", "details": "response read at end of injection (~50-55 s), L19-TNF mutein captured on EDB-coated CM5 chip, read off a plot"}, "[7]": {"target": "L19-TNF^Y59F (human)", "test": "SEC; Superdex 200 Increase 10/300 column, ÄKTA FPLC, protein dialysed into PBS pH 7.4; peak at 12 mL corresponds to the homotrimer"}, "[8]": {"target": "L19-TNF^Y119S (human)", "test": "SEC; Superdex 200 Increase 10/300 column, ÄKTA FPLC, protein dialysed into PBS pH 7.4; peak at 12 mL corresponds to the homotrimer"}, "[9]": {"target": "L19-TNF^I97A (human)", "test": "SPR; BIAcore X100; EDB covalently immobilised on a CM5 chip (1500-2000 RU), L19-TNF protein captured on it through L19-EDB (340 RU); TNFR1 injected for 30 s in a 1:2 dilution series from 1000 nM; PBS pH 7.4; regeneration 10 mM HCl; independent chip for each protein; global fit, 1:1 Langmuir model"}, "[10]": {"target": "L19-TNF^WT (human)", "test": "SPR; BIAcore X100; EDB covalently immobilised on a CM5 chip (1500-2000 RU), L19-TNF protein captured on it through L19-EDB (340 RU); TNFR1 injected for 30 s in a 1:2 dilution series from 1000 nM; PBS pH 7.4; regeneration 10 mM HCl; independent chip for each protein; global fit, 1:1 Langmuir model"}},
  "data": [
    {"substance": "L19-TNF^I97A", "values": [
      {"measurement": "stoichiometry N", "setting": "[1]", "value": 3},
      {"measurement": "EC50 of cytotoxicity on A-375 cells (cell viability, with actinomycin D), 100 nM EDB Coating (M); without EDB coating 2.273 × 10^−9 M", "setting": "[2]", "value": "2.25e-10", "unit": "M"}
    ]},
    {"substance": "L19-TNF^Q102N", "values": [
      {"measurement": "stoichiometry N", "setting": "[3]", "value": 3}
    ]},
    {"substance": "L19-TNF^S147A", "values": [
      {"measurement": "stoichiometry N", "setting": "[4]", "value": 3}
    ]},
    {"substance": "L19-TNF^WT", "values": [
      {"measurement": "stoichiometry N", "setting": "[5]", "value": 3}
    ]},
    {"substance": "L19-TNF^WT Q102N", "values": [
      {"measurement": "response", "setting": "[6]; 125 nM TNFR1", "value": 28, "unit": "RU"},
      {"measurement": "response", "setting": "[6]; 500 nM TNFR1", "value": 45, "unit": "RU"},
      {"measurement": "response", "setting": "[6]; 1000 nM TNFR1", "value": 45, "unit": "RU"}
    ]},
    {"substance": "L19-TNF^Y59F", "values": [
      {"measurement": "stoichiometry N", "setting": "[7]", "value": 3}
    ]},
    {"substance": "L19-TNF^Y119S", "values": [
      {"measurement": "stoichiometry N", "setting": "[8]", "value": 3}
    ]},
    {"substance": "tumor necrosis factor receptor 1 (TNFR-1) (from UniProt P19438 30-455)", "values": [
      {"measurement": "fold faster dissociation rate against L19-TNF^WT", "setting": "[9]", "value": 50, "unit": "fold"},
      {"measurement": "Kd", "setting": "[10]", "value": 10, "unit": "nM"}
    ]}
  ]
}
